Molecular target: the molecule itself
Test: native gel or EMSA; total protein extracts of transfected HEK293T cells on an 8% PAA-gel under non-denaturing conditions, Western blot with an anti-NR2E3 antibody

B1: human NR2E3 wild-type protein (pcDNA3.1/HisC-hNR2E3) (natural protein)
chain: not shown
notes: NR2E3 (PNR), photoreceptor-specific nuclear receptor, human, SwissProt Q9Y5X4; band of 45 kDa on the denaturing gel; also called PNR; pcDNA-NR2E3-His/C; source: HEK293T, transiently transfected, in lysate
  stoichiometry N: 2
